Paper PMC10407282, “An efficient selenium transport pathway of selenoprotein P utilizing a high-affinity ApoER2 receptor variant and being independent of selenocysteine lyase” (The Journal of Biological Chemistry, 2023)

Target: T1, ^75Se-labeled selenoprotein P prepared from HepG2 cells (human (endogenous in HepG2), UniProt P49908 20-381, ^75Se label (cells cultured with ^75Se as selenite); selenocysteine residues)
T1 construct: Selenoprotein P, human, secreted by HepG2 cells that express it endogenously; single band at 69 kDa; also called ^75Se-labeled SeP; ^75Se-labeled human SeP; source: endogenous, HepG2 conditioned medium with ^75Se selenite, partially purified (Ni-NTA agarose, PD-10)
T1 sequence (looked up): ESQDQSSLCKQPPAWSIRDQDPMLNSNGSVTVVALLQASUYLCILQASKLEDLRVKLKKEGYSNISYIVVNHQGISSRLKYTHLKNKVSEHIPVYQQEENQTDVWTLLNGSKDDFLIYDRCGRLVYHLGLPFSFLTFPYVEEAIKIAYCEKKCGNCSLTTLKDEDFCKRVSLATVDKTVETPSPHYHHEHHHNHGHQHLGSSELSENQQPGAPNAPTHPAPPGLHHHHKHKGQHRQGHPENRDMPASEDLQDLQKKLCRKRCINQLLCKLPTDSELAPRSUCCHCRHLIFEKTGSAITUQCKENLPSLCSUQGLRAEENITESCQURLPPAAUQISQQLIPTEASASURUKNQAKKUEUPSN
Test: radioligand binding; Jurkat cells (1.4 x 10^7) with serial dilution of ^75Se-labeled SeP, 1 h at 4 °C, RPMI 1640 with 0.1% BSA, 0.1% NaN3, 50 mM Hepes pH 7.4; nonspecific binding with 500-fold excess of unlabeled SeP; Scatchard analysis, n = 4
Conditions: one partner purified

B1: Apolipoprotein E receptor 2, 140-kDa variant endogenous on Jurkat cells (JΔ5,18) (receptor)
chain: AADPLLGGQGPAKDCEKDQFQCRNERCIPSVWRCDEDDDCLDHSDEDDCPKKTCADSDFTCDNGHCIHERWKCDGEEECPDGSDESEATCTKQVCPAEKLSCGPTSHKCVPASWRCDGEKDCEGGADEAGCATSLGTCRGDEFQCGDGTCVLAIKHCNQEQDCPDGSDEAGCLQGLNECLHNNGGCSHICTDLKIGFECTCPAGFQLLDQKTCGDIDECKDPDACSQICVNYKGYFKCECYPGYEMDLLTKNCKAAAGKSPSLIFTNRHEVRRIDLVKRNYSRLIPMLKNVVALDVEVATNRIYWCDLSYRKIYSAYMDKASDPKEQEVLIDEQLHSPEGLAVDWVHKHIYWTDSGNKTISVATVDGGRRRTLFSRNLSEPRAIAVDPLRGFMYWSDWGDQAKIEKSGLNGVDRQTLVSDNIEWPNGITLDLLSQRLYWVDSKLHQLSSIDFSGGNRKTLISSTDFLSHPFGIAVFEDKVFWTDLENEAIFSANRLNGLEISILAENLNNPHDIVIFHELKQPRAPDACELSVQPNGGCEYLCLPAPQISSHSPKYTCACPDTMWLGPDMKRCYRAPQSTSTTTLASTMTRTVPATTRAPGTTVHRSTYQNHSTETPSLTAAVPSSVSVPRAPSISPSTLSPATSNHSQHYANEDSKMGSTVTAAVIGIIVPIVVIALLCMSGYLIWRNWKRKNTKSMNFDNPVYRKTTEEEDEDELHIGRTAQIGHVYPARVALSLEDDGLP
modifications: highly glycosylated O-linked sugar domain
Binder B1 has a Kd of 0.67 nM.
